The values below come from patent US20190161786A1.

In the experiment the target is wild-type Savinase (Bacillus lentus protease of SEQ ID NO: 3) (Bacillus lentus) (UniProt P41362). As to the kind of experiment: cell-based or functional assay.
Chain of UniProt P41362 (P41362 28-380, tags left off): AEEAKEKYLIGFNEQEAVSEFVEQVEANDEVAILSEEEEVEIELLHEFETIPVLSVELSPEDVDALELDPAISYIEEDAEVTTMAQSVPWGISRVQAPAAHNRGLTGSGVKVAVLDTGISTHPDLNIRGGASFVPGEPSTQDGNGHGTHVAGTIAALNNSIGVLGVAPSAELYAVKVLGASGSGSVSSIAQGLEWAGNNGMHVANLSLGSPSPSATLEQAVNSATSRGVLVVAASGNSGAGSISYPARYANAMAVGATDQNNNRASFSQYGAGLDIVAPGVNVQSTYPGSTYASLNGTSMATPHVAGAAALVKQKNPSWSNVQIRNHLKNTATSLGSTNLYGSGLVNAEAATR

As to “ovoinhibitor isolated from hen egg white (from UniProt P10184 69-517)”, the amount of released amplicon A (qPCR of DNA released from alpha-casein-coated microspheres by the expressed protease), compared to the amount released in the absence of ovoinhibitor was 68%.
